Measurements published in patent publication US20250361317A1 (Janssen / Centocor, published 2025).

What was measured:
[1] = target: T1, human EMR2 (ADGRE2, CD312) on cells (human, UniProt Q9UHX3 24-823); assay: cell-based or functional assay
T1 sequence: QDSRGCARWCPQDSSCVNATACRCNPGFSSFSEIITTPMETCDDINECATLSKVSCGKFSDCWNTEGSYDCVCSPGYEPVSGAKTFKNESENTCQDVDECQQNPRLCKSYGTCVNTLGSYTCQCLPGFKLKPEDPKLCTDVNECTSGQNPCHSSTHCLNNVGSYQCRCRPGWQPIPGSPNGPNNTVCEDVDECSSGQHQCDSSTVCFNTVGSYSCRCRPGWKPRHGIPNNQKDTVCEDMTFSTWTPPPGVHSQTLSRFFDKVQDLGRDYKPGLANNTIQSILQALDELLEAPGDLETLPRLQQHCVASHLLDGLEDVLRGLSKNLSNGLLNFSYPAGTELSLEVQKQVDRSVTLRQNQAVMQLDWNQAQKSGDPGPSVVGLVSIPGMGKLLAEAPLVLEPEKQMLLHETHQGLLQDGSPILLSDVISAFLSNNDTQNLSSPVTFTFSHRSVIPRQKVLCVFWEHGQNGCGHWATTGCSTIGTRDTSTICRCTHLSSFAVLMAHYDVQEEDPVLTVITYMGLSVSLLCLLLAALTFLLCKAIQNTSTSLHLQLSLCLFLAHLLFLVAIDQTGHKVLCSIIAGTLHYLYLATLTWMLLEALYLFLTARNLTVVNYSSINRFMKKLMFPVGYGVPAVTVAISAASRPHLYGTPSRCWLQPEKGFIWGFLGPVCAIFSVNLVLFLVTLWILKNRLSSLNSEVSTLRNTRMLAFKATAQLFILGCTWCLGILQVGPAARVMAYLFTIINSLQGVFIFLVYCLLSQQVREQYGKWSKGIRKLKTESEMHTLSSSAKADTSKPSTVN

[2] = target: T2, T-cell receptor with TRBV19 (Vβ17) beta chain on human T cells (human); assay: cell-based or functional assay
T2 sequence (A0A075B6N1 22-114): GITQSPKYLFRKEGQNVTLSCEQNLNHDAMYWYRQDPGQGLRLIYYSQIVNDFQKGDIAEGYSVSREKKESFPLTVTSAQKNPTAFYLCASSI

FcRn (human) = target: T3, FcRn (human) (human, UniProt P55899 24-297; P61769 21-119); assay: FcRn binding (human, pH 6)
T3 construct: also called neonatal Fc receptor
T3 sequence (P55899 24-297 limits assumed, chain 1 of 2): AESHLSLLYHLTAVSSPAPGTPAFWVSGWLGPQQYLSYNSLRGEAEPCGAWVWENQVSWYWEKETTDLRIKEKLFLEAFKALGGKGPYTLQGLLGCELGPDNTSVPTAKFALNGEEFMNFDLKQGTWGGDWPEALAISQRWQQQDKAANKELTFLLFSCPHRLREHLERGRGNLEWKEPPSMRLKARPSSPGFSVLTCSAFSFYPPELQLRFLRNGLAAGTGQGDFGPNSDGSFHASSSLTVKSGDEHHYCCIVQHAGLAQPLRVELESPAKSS
T3 sequence (P61769 21-119 limits assumed, chain 2 of 2): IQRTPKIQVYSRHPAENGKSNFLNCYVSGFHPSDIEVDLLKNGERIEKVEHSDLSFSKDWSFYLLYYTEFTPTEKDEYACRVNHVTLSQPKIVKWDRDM

[3] = target: T1, human EMR2 (ADGRE2, CD312) on cells; assay: flow cytometry, OCI-AML3 cells, 1 hour at 37 °C; mean ± SEM
Protocol: (§1) After secondary detection with AF647-labeled material, the MFI signal was analyzed to generate an EC50 value. Curves are representative of 3 independent experiments.

[4] = target: T1, human EMR2 (ADGRE2, CD312) on cells; assay: flow cytometry, OCI-AML5 cells, 1 hour at 37 °C; mean ± SEM
Protocol: as §1

[5] = target: T2, T-cell receptor with TRBV19 (Vβ17) beta …; assay: flow cytometry, percent TRBV19+ of live pan-T cells, Donor 1, 1 hour, 37 °C
[6] = target: T2, T-cell receptor with TRBV19 (Vβ17) beta …; assay: flow cytometry, percent TRBV19+ of live pan-T cells, Donor 6, 1 hour, 37 °C
[7] = target: T1, human EMR2 (ADGRE2, CD312) on cells; assay: flow cytometry, median AF647 of live cells, MOLM 13 cells, 1 hour at 37 C
[8] = target: T4, EMR2W4, huEMR2 GAIN domain + GPS, D261-T540, with C-terminal Avi/6x His tag (human); assay: SPR, row 'SPR (KD) / EMR2' of the Forced Degradation table; first sample batch (in PBS); stress condition of the KD and EMR2 construct not named on the sheet
T4 construct: also called Human EMR2 GAIN domain protein
T4 chain: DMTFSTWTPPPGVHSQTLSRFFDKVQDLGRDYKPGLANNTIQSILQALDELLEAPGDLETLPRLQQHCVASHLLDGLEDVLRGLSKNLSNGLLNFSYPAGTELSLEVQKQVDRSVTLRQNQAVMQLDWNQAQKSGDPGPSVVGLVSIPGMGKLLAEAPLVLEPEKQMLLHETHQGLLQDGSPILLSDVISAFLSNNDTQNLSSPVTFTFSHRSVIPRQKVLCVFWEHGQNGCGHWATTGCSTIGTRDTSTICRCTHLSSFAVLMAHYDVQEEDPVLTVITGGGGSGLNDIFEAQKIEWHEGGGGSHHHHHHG

B1: EMVBB8 (EMR2 x TRBV19 bispecific antibody) (bispecific antibody, human IgG1, kappa, L234A L235A)
heavy 1: DIQMTQSPSSLSASVGDRVTITCRSSQSLVHSNRNTYLHWYQQKPGCAPKLLIYKVSNRFSGVPSRFSGSGSGTDFTLTISSLQPEDFATYYCSQSTHVPFTFGQGTKLEIKGGGSGGSGGCPPCGGSGGQVQLQESGPGLVKPSETLSLTCTVSGYSITSGYFWNWIRQFPGKGLEWMGYISYDGSNNYNPSLKSRITISRDTSKNQFSLKLSSVTAADTAVYYCASPSPGTGYAVDYWGCGTTVTVSSEPKSSDKTHTCPPCPAPEAAGGPSVFLFPPKPKDTLMISRTPEVTCVVVSVSHEDPEVKFNWYVDGVEVHNAKTKPREEQYNSTYRVVSVLTVLHQDWLNGKEYKCKVSNKALPAPIEKTISKAKGQPREPQVYTLPPSREEMTKNQVSLWCLVKGFYPSDIAVEWESNGQPENNYKTTPPVLDSDGSFFLYSKLTVDKSRWQQGNVFSCSVMHEALHNHYTQKSLSLSPGK
heavy 2: EVQLVESGGGLVQPGGSLRLSCTASGFTFSRYSMNWVRQAPGEGLEWVSYISSSSNTIYYADSVKGRFTISRDNAKNSLYLQMNSLRDEDTAVYYCARDQGTPFDYWGQGTLVTVSSASTKGPSVFPLAPSSKSTSGGTAALGCLVKDYFPEPVTVSWNSGALTSGVHTFPAVLQSSGLYSLSSVVTVPSSSLGTQTYICNVNHKPSNTKVDKKVEPKSCDKTHTCPPCPAPEAAGGPSVFLFPPKPKDTLMISRTPEVTCVVVSVSHEDPEVKFNWYVDGVEVHNAKTKPREEQYNSTYRVVSVLTVLHQDWLNGKEYKCKVSNKALPAPIEKTISKAKGQPREPQVYTLPPSREEMTKNQVSLSCAVKGFYPSDIAVEWESNGQPENNYKTTPPVLDSDGSFFLVSKLTVDKSRWQQGNVFSCSVMHEALHNRFTQKSLSLSPGK
light: EIVLTQSPSSVSASIGDRVTITCRASQDISSWLGWYQQKPGKAPKLLIYAAISLQSGVPSRFSGSESGTDFTLTISSLQPEDFATYYCHQANSFPLTFGGGTKVEIKRTVAAPSVFIFPPSDEQLKSGTASVVCLLNNFYPREAKVQWKVDNALQSGNSQESVTEQDSKDSTYSLSSTLTLSKADYEKHKVYACEVTHQGLSSPVTKSFNRGEC
notes: also called the bispecific antibody
- Cytotoxicity, EC50 (nM), 24 hours, PBMC + OCI-AML3 [1]: 0.02 nM
- Cytotoxicity, EC50 (nM), 48 hours, PBMC + OCI-AML3 [1]: 0.01 nM
- Cytotoxicity, EC50 (nM), 72 hours, PBMC + OCI-AML3 [1]: 0.004 nM
- Cytotoxicity, EC50 (nM), 96 hours, PBMC + OCI-AML3 [1]: 0.003 nM
- Cytotoxicity, EC50 (nM), 120 hours, PBMC + OCI-AML3 [1]: 0.004 nM
- Pan-T-cell activation (CD25), EC50 (nM), 24 hours, PBMC + OCI-AML3 [2]: 0.02 nM
- Pan-T-cell activation (CD25), EC50 (nM), 48 hours, PBMC + OCI-AML3 [2]: 0.01 nM
- Pan-T-cell activation (CD25), EC50 (nM), 72 hours, PBMC + OCI-AML3 [2]: 0.01 nM
- Pan-T-cell activation (CD25), EC50 (nM), 96 hours, PBMC + OCI-AML3 [2]: 0.01 nM
- Pan-T-cell activation (CD25), EC50 (nM), 120 hours, PBMC + OCI-AML3 [2]: 0.01 nM
- Kd (FcRn (human)): 306 nM
- EC50 [3]: 48 nM
- EC50 [4]: 27 nM
- EC50 [5]: 7.8 nM
- EC50 [6]: 4.9 nM
- EC50 [7]: 16.4 nM
- Max (MFI) [7]: 400000 MFI
- Kd [8]: 0.154 nM
